T1: PDZRN3_1, Q9UPQ7
T1 sequence (Q9UPQ7 244-349, limits assumed, looked up): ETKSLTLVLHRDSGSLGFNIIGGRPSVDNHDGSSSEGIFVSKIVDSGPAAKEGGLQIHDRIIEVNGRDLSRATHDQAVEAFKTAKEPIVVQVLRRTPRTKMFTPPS

T2: MPP7, Q5T2T1
T2 sequence (Q5T2T1 134-230, limits assumed, looked up): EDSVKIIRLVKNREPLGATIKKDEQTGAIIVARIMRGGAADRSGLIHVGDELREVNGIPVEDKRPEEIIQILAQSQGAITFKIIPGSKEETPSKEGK

T3: NHERF3_4, Q5T2W1
T3 sequence (Q5T2W1 373-468, limits assumed, looked up): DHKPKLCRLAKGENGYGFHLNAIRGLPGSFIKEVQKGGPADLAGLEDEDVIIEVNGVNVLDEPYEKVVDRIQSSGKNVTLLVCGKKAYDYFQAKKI

T4: PARD3B_1, Q8TEW8
T4 sequence (Q8TEW8 196-299, limits assumed, looked up): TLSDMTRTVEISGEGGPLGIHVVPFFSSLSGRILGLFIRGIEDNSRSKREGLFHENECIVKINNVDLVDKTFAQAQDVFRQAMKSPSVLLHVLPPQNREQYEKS

T5: DLG3_2, Q92796
T5 sequence (Q92796 221-321, limits assumed, looked up): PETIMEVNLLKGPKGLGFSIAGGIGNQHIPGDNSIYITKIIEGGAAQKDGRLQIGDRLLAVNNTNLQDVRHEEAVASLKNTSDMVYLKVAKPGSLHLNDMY

T6: SNTG2, Q9NY99
T6 sequence (Q9NY99 68-166, limits assumed, looked up): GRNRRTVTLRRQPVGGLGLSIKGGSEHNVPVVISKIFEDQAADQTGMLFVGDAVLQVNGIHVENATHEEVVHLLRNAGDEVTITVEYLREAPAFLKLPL

T7: RAPGEF6, Q8TEU7
T7 sequence (Q8TEU7 525-625, limits assumed, looked up): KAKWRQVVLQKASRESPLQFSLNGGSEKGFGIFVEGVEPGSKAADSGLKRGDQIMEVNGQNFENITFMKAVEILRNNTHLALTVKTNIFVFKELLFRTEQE

T8: HTRA4, P83105
T8 sequence (P83105 378-476, limits assumed, looked up): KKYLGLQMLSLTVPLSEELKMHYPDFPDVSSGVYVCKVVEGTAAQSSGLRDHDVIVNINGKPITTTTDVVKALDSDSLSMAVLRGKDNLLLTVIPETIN

T9: LIN7A, O14910
T9 sequence (O14910 103-200, limits assumed, looked up): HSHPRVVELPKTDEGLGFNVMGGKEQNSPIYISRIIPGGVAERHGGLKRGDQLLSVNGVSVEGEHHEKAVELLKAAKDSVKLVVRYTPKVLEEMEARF

T10: SNTG1, Q9NSN8
T10 sequence (Q9NSN8 52-150, limits assumed, looked up): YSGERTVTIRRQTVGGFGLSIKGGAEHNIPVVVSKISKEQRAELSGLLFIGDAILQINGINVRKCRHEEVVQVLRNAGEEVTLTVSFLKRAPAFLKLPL


What follows are binders tested against Inadl_9, Q8NI35 (assay: holdup assay). Details: plain residues with an end cap or a label only (N-terminal biotin on a linker: ttds).
Chain of Inadl_9, Q8NI35 (Q8NI35 1530-1615): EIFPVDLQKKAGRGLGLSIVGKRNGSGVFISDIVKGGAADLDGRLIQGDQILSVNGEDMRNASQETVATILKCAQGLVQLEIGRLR
Parameters: key: below the threshold = too weak to quantify, mostly under pKd 3.1 to 4
PRVKPQRSKV [PPP1R13L, Q8WUF5] was tested, and the pKd was “below the threshold”.

Each binder was assayed against T1, PDZRN3_1, Q9UPQ7 (assay: holdup assay). Details: plain residues with an end cap or a label only (N-terminal biotin on a linker: ttds).
Parameters: key: below the threshold = too weak to quantify, mostly under pKd 3.1 to 4
In the case of EMDRRPATVV [PLCB4, Q15147], the pKd is reported as 4.08.
For PRVKPQRSKV [PPP1R13L, Q8WUF5], the pKd was “below the threshold”.

The binders below were run against T2, MPP7, Q5T2T1 (assay: holdup assay). Details: plain residues with an end cap or a label only (N-terminal biotin on a linker: ttds).
Parameters: key: below the threshold = too weak to quantify, mostly under pKd 3.1 to 4
EMDRRPATVV [PLCB4, Q15147] was tested, and the pKd was “below the threshold”.
With PRVKPQRSKV [PPP1R13L, Q8WUF5] the pKd was “below the threshold”.

What follows are binders tested against MAST1, Q9Y2H9 (assay: holdup assay). Details: plain residues with an end cap or a label only (N-terminal biotin on a linker: ttds).
Chain of MAST1, Q9Y2H9 (Q9Y2H9 962-1065): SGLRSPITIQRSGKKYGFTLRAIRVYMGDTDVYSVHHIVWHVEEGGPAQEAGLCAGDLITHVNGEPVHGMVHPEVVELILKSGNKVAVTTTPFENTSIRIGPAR
Parameters: key: below the threshold = too weak to quantify, mostly under pKd 3.1 to 4
For EMDRRPATVV [PLCB4, Q15147], the pKd was 4.48.
For PRVKPQRSKV [PPP1R13L, Q8WUF5], the pKd was 3.71.

These binders were tested against T3, NHERF3_4, Q5T2W1 (assay: holdup assay). Details: plain residues with an end cap or a label only (N-terminal biotin on a linker: ttds).
Parameters: key: below the threshold = too weak to quantify, mostly under pKd 3.1 to 4
In the case of EMDRRPATVV [PLCB4, Q15147], the pKd is reported as “below the threshold”.
In the case of PRVKPQRSKV [PPP1R13L, Q8WUF5], the pKd is reported as “below the threshold”.

Each binder was assayed against T4, PARD3B_1, Q8TEW8 (assay: holdup assay). Details: plain residues with an end cap or a label only (N-terminal biotin on a linker: ttds).
Parameters: key: below the threshold = too weak to quantify, mostly under pKd 3.1 to 4
EMDRRPATVV [PLCB4, Q15147] gave a pKd of 3.68.
PRVKPQRSKV [PPP1R13L, Q8WUF5] was tested, and the pKd was “below the threshold”.

The binders below were run against Inadl_3, Q8NI35 (assay: holdup assay). Details: plain residues with an end cap or a label only (N-terminal biotin on a linker: ttds).
Chain of Inadl_3, Q8NI35 (Q8NI35 359-469): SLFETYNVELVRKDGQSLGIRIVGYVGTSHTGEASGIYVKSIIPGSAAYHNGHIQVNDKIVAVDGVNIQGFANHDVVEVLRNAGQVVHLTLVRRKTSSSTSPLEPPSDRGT
Parameters: key: below the threshold = too weak to quantify, mostly under pKd 3.1 to 4
In the case of PRVKPQRSKV [PPP1R13L, Q8WUF5], the pKd is reported as “below the threshold”.

These binders were tested against NHERF2_2, Q15599 (assay: holdup assay). Details: plain residues with an end cap or a label only (N-terminal biotin on a linker: ttds).
Chain of NHERF2_2, Q15599 (Q15599 142-238): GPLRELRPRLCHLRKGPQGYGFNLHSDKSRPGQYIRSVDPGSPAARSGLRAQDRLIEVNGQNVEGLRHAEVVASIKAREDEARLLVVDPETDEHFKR
Parameters: key: below the threshold = too weak to quantify, mostly under pKd 3.1 to 4
For EMDRRPATVV [PLCB4, Q15147], the pKd was “below the threshold”.
For PRVKPQRSKV [PPP1R13L, Q8WUF5], the pKd was “below the threshold”.

These binders were tested against T5, DLG3_2, Q92796 (assay: holdup assay). Details: plain residues with an end cap or a label only (N-terminal biotin on a linker: ttds).
Parameters: key: below the threshold = too weak to quantify, mostly under pKd 3.1 to 4
With EMDRRPATVV [PLCB4, Q15147] the pKd was 4.24.
Work on PRVKPQRSKV [PPP1R13L, Q8WUF5] yielded a pKd of 3.73.

Each binder was assayed against LNX1_1, Q8TBB1 (assay: holdup assay). Details: plain residues with an end cap or a label only (N-terminal biotin on a linker: ttds).
Chain of LNX1_1, Q8TBB1 (Q8TBB1 261-371): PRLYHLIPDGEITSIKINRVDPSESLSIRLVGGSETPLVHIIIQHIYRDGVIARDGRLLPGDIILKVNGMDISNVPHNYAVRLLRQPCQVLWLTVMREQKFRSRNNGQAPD
Parameters: key: below the threshold = too weak to quantify, mostly under pKd 3.1 to 4
In the case of EMDRRPATVV [PLCB4, Q15147], the pKd is reported as 4.01.
PRVKPQRSKV [PPP1R13L, Q8WUF5] was tested, and the pKd was “below the threshold”.

These binders were tested against FRMPD4, Q14CM0 (assay: holdup assay). Details: plain residues with an end cap or a label only (N-terminal biotin on a linker: ttds).
Chain of FRMPD4, Q14CM0 (Q14CM0 67-160): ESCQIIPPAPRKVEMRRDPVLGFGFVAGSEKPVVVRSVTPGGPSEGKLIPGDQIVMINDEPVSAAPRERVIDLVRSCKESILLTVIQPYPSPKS
Parameters: key: below the threshold = too weak to quantify, mostly under pKd 3.1 to 4
For EMDRRPATVV [PLCB4, Q15147], the pKd was 3.55.
With PRVKPQRSKV [PPP1R13L, Q8WUF5] the pKd was “below the threshold”.

The binders below were run against DLG4_1, P78352 (assay: holdup assay). Details: plain residues with an end cap or a label only (N-terminal biotin on a linker: ttds).
Chain of DLG4_1, P78352 (P78352 62-152): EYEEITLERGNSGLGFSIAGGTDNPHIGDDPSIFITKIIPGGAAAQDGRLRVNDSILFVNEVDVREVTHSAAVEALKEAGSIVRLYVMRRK
Parameters: key: below the threshold = too weak to quantify, mostly under pKd 3.1 to 4
EMDRRPATVV [PLCB4, Q15147] gave a pKd of 4.13.
Work on PRVKPQRSKV [PPP1R13L, Q8WUF5] yielded a pKd of 3.54.

These binders were tested against MAGI2_3, Q86UL8 (assay: holdup assay). Details: plain residues with an end cap or a label only (N-terminal biotin on a linker: ttds).
Chain of MAGI2_3, Q86UL8 (Q86UL8 600-682): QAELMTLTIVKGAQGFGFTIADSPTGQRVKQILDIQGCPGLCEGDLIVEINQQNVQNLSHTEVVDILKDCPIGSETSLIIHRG
Parameters: key: below the threshold = too weak to quantify, mostly under pKd 3.1 to 4
With EMDRRPATVV [PLCB4, Q15147] the pKd was “below the threshold”.
With PRVKPQRSKV [PPP1R13L, Q8WUF5] the pKd was “below the threshold”.

These binders were tested against T6, SNTG2, Q9NY99 (assay: holdup assay). Details: plain residues with an end cap or a label only (N-terminal biotin on a linker: ttds).
Parameters: key: below the threshold = too weak to quantify, mostly under pKd 3.1 to 4
With EMDRRPATVV [PLCB4, Q15147] the pKd was 3.71.
PRVKPQRSKV [PPP1R13L, Q8WUF5] was tested, and the pKd was “below the threshold”.

These binders were tested against SCRIB_3, Q14160 (assay: holdup assay). Details: plain residues with an end cap or a label only (N-terminal biotin on a linker: ttds).
Chain of SCRIB_3, Q14160 (Q14160 999-1103): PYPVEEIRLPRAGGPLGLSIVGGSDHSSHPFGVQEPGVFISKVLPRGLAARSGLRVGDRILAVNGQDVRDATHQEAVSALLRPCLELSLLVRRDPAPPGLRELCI
Parameters: key: below the threshold = too weak to quantify, mostly under pKd 3.1 to 4
With EMDRRPATVV [PLCB4, Q15147] the pKd was 4.1.
In the case of PRVKPQRSKV [PPP1R13L, Q8WUF5], the pKd is reported as “below the threshold”.

What follows are binders tested against T7, RAPGEF6, Q8TEU7 (assay: holdup assay). Details: plain residues with an end cap or a label only (N-terminal biotin on a linker: ttds).
Parameters: key: below the threshold = too weak to quantify, mostly under pKd 3.1 to 4
In the case of EMDRRPATVV [PLCB4, Q15147], the pKd is reported as “below the threshold”.
For PRVKPQRSKV [PPP1R13L, Q8WUF5], the pKd was “below the threshold”.

Each binder was assayed against NHERF4_2, Q86UT5 (assay: holdup assay). Details: plain residues with an end cap or a label only (N-terminal biotin on a linker: ttds).
Chain of NHERF4_2, Q86UT5 (Q86UT5 220-308): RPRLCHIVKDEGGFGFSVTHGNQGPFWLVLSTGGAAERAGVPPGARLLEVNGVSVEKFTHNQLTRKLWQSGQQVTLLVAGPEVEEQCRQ
Parameters: key: below the threshold = too weak to quantify, mostly under pKd 3.1 to 4
In the case of EMDRRPATVV [PLCB4, Q15147], the pKd is reported as “below the threshold”.
PRVKPQRSKV [PPP1R13L, Q8WUF5] was tested, and the pKd was “below the threshold”.

The binders below were run against LIMK2, P53671 (assay: holdup assay). Details: plain residues with an end cap or a label only (N-terminal biotin on a linker: ttds).
Chain of LIMK2, P53671 (P53671 143-248): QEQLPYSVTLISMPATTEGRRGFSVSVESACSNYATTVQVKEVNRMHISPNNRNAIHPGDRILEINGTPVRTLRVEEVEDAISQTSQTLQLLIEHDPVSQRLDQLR
Parameters: key: below the threshold = too weak to quantify, mostly under pKd 3.1 to 4
With EMDRRPATVV [PLCB4, Q15147] the pKd was 3.52.
With PRVKPQRSKV [PPP1R13L, Q8WUF5] the pKd was “below the threshold”.

These binders were tested against T8, HTRA4, P83105 (assay: holdup assay). Details: plain residues with an end cap or a label only (N-terminal biotin on a linker: ttds).
Parameters: key: below the threshold = too weak to quantify, mostly under pKd 3.1 to 4
EMDRRPATVV [PLCB4, Q15147] gave a pKd of 3.6.
In the case of PRVKPQRSKV [PPP1R13L, Q8WUF5], the pKd is reported as “below the threshold”.

These binders were tested against T9, LIN7A, O14910 (assay: holdup assay). Details: plain residues with an end cap or a label only (N-terminal biotin on a linker: ttds).
Parameters: key: below the threshold = too weak to quantify, mostly under pKd 3.1 to 4
With EMDRRPATVV [PLCB4, Q15147] the pKd was “below the threshold”.
With PRVKPQRSKV [PPP1R13L, Q8WUF5] the pKd was “below the threshold”.

Each binder was assayed against MAGI2_5, Q86UL8 (assay: holdup assay). Details: plain residues with an end cap or a label only (N-terminal biotin on a linker: ttds).
Chain of MAGI2_5, Q86UL8 (Q86UL8 915-1017): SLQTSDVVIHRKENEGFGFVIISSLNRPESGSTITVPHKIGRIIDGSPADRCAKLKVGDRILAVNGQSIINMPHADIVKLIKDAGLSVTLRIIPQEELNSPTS
Parameters: key: below the threshold = too weak to quantify, mostly under pKd 3.1 to 4
With EMDRRPATVV [PLCB4, Q15147] the pKd was “below the threshold”.
PRVKPQRSKV [PPP1R13L, Q8WUF5] was tested, and the pKd was “below the threshold”.

Each binder was assayed against PICK1, Q9NRD5 (assay: holdup assay). Details: plain residues with an end cap or a label only (N-terminal biotin on a linker: ttds).
Chain of PICK1, Q9NRD5 (Q9NRD5 17-115): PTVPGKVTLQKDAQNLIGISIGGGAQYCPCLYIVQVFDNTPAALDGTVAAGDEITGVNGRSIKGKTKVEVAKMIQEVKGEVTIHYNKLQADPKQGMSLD
Parameters: key: below the threshold = too weak to quantify, mostly under pKd 3.1 to 4
For EMDRRPATVV [PLCB4, Q15147], the pKd was “below the threshold”.
For PRVKPQRSKV [PPP1R13L, Q8WUF5], the pKd was “below the threshold”.

The binders below were run against T10, SNTG1, Q9NSN8 (assay: holdup assay). Details: plain residues with an end cap or a label only (N-terminal biotin on a linker: ttds).
Parameters: key: below the threshold = too weak to quantify, mostly under pKd 3.1 to 4
EMDRRPATVV [PLCB4, Q15147] was tested, and the pKd was “below the threshold”.
With PRVKPQRSKV [PPP1R13L, Q8WUF5] the pKd was “below the threshold”.

What follows are binders tested against HTRA1, Q92743 (assay: holdup assay). Details: plain residues with an end cap or a label only (N-terminal biotin on a linker: ttds).
Chain of HTRA1, Q92743 (Q92743 360-477): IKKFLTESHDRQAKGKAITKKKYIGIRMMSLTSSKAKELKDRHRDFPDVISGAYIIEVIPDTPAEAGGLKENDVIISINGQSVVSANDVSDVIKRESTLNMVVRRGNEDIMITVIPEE
Parameters: key: below the threshold = too weak to quantify, mostly under pKd 3.1 to 4
With EMDRRPATVV [PLCB4, Q15147] the pKd was 4.23.
With PRVKPQRSKV [PPP1R13L, Q8WUF5] the pKd was “below the threshold”.

What follows are binders tested against GRIP2_7, Q9C0E4 (assay: holdup assay). Details: plain residues with an end cap or a label only (N-terminal biotin on a linker: ttds).
Chain of GRIP2_7, Q9C0E4 (Q9C0E4 934-1023): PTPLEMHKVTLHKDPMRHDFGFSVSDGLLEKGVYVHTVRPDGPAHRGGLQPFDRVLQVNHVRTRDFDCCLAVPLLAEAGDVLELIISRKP
Parameters: key: below the threshold = too weak to quantify, mostly under pKd 3.1 to 4
In the case of EMDRRPATVV [PLCB4, Q15147], the pKd is reported as 3.63.
In the case of PRVKPQRSKV [PPP1R13L, Q8WUF5], the pKd is reported as “below the threshold”.

The binders below were run against MAGI1_2, Q96QZ7 (assay: holdup assay). Details: plain residues with an end cap or a label only (N-terminal biotin on a linker: ttds).
Chain of MAGI1_2, Q96QZ7 (Q96QZ7 456-580): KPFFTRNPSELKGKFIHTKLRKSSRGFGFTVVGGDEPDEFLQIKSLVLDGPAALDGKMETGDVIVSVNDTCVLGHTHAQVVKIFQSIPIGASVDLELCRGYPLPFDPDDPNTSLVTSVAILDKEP
Parameters: key: below the threshold = too weak to quantify, mostly under pKd 3.1 to 4
In the case of EMDRRPATVV [PLCB4, Q15147], the pKd is reported as “below the threshold”.
In the case of PRVKPQRSKV [PPP1R13L, Q8WUF5], the pKd is reported as 3.72.

Each binder was assayed against IL16_3, Q14005 (assay: holdup assay). Details: plain residues with an end cap or a label only (N-terminal biotin on a linker: ttds).
Chain of IL16_3, Q14005 (Q14005 1107-1207): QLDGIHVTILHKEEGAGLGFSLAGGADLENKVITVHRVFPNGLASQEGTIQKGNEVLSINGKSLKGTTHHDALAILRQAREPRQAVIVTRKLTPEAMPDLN
Parameters: key: below the threshold = too weak to quantify, mostly under pKd 3.1 to 4
With EMDRRPATVV [PLCB4, Q15147] the pKd was “below the threshold”.
With PRVKPQRSKV [PPP1R13L, Q8WUF5] the pKd was “below the threshold”.
